According to paper PMC8136791, “In vivo targets of Salmonella FinO include a FinP-like small RNA controlling copy number of a cohabitating plasmid”:

B1: FinP (structured_RNA)
RNA: GGGACACAUAGGAACCUCCUCAAAGGAUUCUAUGGACAGUCGAUGCAGGGAGUGACAGCUCCCUGUAUCGGCGAUUUU
B2: RepX (structured_RNA)
RNA: GGGCAUUGAUUGCCUCCUUUGCAGGCAGUUGGUGGUUAGGCGCUGGCGGGGUCACUACCCCCGCCCUGCGCCGCUCU

Target: FinO (Salmonella enterica SL1344 (virulence …, UniProt A0A0H3P176 1-187))
Test: EMSA; yeast RNA 1 ug/reaction; apparent Kd; 25 mM Tris-HCl pH 7.4, 150 mM NaCl, 1 mM MgCl2, 1 ug yeast RNA/reaction, 4 nM labeled RNA, 37 C, 1 h (EMSA) or 30 min (filter binding)
Conditions: protein: recombinant, tags: His6-3C (expression plasmid pMiG007-His6-3C-FinO), label: 32P (5' end; 3' pCp alternative for probing)

Row | Binder | Kd (two stem-loops (SLI, SLII) with 3' U tail) [nM] | Kd (FinP-like stem-loops, short 3' tail) [nM]
1 | B1 | ~500 | –
2 | B2 | – | ~500
